The results in this text go back to patent US8703143 (PHILOGEN S P A, dated 2014).

Changes are numbered by the printed parent chain.

Test [1] addresses T1, recombinant FN fragment 789 (human, UniProt P02751-1 1173-1446, limits assumed).
T1 construct: domain: type III homology repeats 789; the text treats it as lacking ED-B; also called rec FN789
The test is described as follows: immunoblot of recombinant FN proteins expressed in E. coli. The procedure:
The fine specificity of CGS-1 and CGS-2 was investigated further by immunoblotting using recombinant FN fragments and fusion proteins with or without the ED-B sequence. The FN fusion proteins were prepared as described by Carnemolla et al (1989). The results of these experiments are shown in FIG. 3; for the association of the schematic diagram to the structure of the domains of human FN, see Carnemolla et al, 1992.
For orientation: Immunoblotting shows a protein as a band on a membrane.

Test [2] has as its target T2, recombinant ED-B domain of human fibronectin with a carboxy terminal hexahistidine tag (human, UniProt P02751 1266-1356).
T2 construct: domain: ED-B; In BIAcore chemically immobilised at the N-terminal amino group; also called rec ED-B; recombinant ED-B peptide
The test is described as follows: BIAcore, monomeric scFv on immobilised antigen. The procedure: (§1) Binding of monovalent scFv at various concentrations in the 0.1-1 μM range in PBS was measured on a BIAcore machine (Pharmacia Biosensor), using the following antigens: (i) 1000 Resonance Units (RU) of biotinylated recombinant FN fragment 7B89 immobilised on a streptavidin coated chip, which was bound specifically by 250 RU of scFv; (ii) 200 RU of recombinant ED-B, chemically immobilised at the N-terminal amino group, which was bound specifically by 600 RU of scFv; (iii) 3500 RU of ED-B-rich fibronectin WI38VA (see Example 3), which was bound specifically by 150 RU of scFv. Kinetic analysis of the data was performed according to the manufacturers' instructions. On the basis of qualitative BIAcore analysis of antibody-containing supernatants, one affinity-matured version of each scFv clone was selected: clone CGS-1 from selection with the 78B9 fragment and CGS-2 from selection with ED-B recombinant FN fragment. The association rate constants ($kon$) and dissociation rate constants ($koff$) are shown in Table 1, together with the calculated equilibrium dissociation constants (Kd) of both scFvs and the original clone 28SI. […] The improvement was due mainly to a slower kinetic dissociation constant (-10^-4 s^-1), as measured with monomeric antibody preparations (not shown).

For test [3], the target named is T3, fibronectin purified from the conditioned medium of the SV40-transformed cell line WI38VA13 (human, UniProt P02751 32-2477).
T3 construct: mature; Mixture of isoforms, most of them B+; also called FN WI38VA; WI38VA FN
T3 sequence (P02751 32-2477): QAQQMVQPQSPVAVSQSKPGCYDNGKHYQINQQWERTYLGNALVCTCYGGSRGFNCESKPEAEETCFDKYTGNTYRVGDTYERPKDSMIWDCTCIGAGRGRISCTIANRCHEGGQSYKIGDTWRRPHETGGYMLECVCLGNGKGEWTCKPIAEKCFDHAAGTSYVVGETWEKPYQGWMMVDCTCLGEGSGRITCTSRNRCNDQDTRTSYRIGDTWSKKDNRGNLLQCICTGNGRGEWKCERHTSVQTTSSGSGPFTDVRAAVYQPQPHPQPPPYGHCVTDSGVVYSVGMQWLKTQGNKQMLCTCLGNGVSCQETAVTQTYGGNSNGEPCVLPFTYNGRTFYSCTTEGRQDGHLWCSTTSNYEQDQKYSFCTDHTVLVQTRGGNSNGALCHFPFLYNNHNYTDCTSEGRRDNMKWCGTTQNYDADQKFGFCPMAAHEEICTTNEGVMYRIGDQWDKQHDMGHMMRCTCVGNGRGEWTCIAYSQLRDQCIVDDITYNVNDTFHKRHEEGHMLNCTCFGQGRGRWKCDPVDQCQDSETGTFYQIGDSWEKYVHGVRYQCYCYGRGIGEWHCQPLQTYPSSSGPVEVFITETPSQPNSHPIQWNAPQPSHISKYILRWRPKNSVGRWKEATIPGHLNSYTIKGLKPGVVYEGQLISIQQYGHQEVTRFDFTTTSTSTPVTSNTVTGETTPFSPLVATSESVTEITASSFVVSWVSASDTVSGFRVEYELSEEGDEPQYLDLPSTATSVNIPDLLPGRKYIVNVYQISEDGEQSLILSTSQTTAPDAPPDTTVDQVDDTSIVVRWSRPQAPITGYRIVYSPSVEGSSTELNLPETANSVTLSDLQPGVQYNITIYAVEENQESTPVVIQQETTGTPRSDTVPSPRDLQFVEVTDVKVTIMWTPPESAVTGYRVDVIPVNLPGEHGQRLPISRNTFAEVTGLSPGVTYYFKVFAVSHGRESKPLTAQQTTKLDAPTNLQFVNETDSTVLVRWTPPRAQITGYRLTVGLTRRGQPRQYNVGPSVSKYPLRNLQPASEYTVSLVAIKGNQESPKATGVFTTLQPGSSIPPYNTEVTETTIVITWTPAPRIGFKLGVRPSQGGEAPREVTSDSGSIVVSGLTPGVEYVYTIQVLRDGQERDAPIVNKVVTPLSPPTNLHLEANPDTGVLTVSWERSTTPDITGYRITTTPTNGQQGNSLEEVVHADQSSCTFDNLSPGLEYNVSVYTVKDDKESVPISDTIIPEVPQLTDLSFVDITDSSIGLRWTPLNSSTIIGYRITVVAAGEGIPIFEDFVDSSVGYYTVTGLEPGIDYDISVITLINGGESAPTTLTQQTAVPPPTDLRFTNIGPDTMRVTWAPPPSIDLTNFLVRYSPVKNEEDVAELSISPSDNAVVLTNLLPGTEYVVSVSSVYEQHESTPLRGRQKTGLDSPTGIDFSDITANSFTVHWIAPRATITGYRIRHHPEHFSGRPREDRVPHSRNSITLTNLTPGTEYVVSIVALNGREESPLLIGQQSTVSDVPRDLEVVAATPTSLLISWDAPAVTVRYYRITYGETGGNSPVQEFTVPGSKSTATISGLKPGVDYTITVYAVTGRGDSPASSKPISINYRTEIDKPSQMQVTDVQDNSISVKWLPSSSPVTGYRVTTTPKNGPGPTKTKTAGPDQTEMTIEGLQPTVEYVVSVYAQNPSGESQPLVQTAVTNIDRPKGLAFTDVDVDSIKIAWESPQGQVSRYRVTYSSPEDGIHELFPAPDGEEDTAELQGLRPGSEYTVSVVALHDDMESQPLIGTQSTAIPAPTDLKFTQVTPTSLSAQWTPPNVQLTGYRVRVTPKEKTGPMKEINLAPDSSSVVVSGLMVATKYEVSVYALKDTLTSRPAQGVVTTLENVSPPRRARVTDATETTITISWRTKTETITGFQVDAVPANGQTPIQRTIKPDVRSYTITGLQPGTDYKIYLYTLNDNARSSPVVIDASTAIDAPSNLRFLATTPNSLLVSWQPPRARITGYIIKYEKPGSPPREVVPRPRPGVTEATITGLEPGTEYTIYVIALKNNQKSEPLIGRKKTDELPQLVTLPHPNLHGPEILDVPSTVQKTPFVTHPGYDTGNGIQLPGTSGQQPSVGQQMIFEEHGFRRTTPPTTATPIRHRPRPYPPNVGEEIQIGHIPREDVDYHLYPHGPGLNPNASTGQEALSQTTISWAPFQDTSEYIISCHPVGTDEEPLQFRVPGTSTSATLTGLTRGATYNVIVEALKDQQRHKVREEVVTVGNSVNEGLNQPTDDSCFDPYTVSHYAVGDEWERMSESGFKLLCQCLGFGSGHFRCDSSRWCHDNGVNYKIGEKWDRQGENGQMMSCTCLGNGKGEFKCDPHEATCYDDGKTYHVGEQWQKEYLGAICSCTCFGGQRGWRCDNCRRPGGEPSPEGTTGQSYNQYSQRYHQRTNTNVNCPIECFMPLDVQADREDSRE
Nature of the test: BIAcore, monomeric scFv on immobilised antigen. The procedure: as §1
(In general: In SPR one partner is held on a chip, and binding of the other changes the refractive index at the surface.)

For test [4], the target named is T4, recombinant FN fragment 7B89 (human, UniProt P02751 1173-1537, limits assumed, biotinylated for BIAcore (sites not given)).
T4 construct: domain: type III homology repeats 7B89; also called rec FN7B89; 78B9 [sic]
T4 sequence (P02751 other isoform, or with tags, fused parts or gaps limits assumed): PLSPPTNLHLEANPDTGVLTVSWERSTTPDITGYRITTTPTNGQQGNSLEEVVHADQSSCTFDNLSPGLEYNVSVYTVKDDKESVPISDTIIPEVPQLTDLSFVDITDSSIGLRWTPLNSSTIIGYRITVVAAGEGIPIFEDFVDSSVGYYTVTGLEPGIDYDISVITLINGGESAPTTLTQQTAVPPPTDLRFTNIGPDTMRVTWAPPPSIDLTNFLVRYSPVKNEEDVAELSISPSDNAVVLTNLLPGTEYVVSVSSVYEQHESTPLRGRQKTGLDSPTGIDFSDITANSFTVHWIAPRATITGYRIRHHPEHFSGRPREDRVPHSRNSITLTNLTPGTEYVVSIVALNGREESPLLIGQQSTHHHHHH
The test is described as follows: BIAcore, monomeric scFv on immobilised antigen. How it is done: as §1

The target of test [5] is T2, recombinant ED-B domain of human …. The test is described as follows: ELISA on coated antigen, background subtracted. How it is done:
(§2) All antigens used in ELISA were diluted in PBS to between 50-100 μg/ml and coated at 4° C. overnight onto Immuno-Plate wells (Nunc, Roskilde, Denmark). Unbound antigen was removed with PBS and plates were then blocked with PBS containing 3% (w/v) bovine serum albumin (BSA) for 2 h at 37° C. This was followed by four washes with PBS containing 0.05% Tween 20 (PBST). Antibodies were then allowed to bind at 37° C. for 1.5 h; scFvs were preincubated with an antiserum directed against the tag sequence: mAb M2 [Kodak, New Haven Conn.] for the FLAG tag or 9E10 [ATCC, Rockville, Md.] for the myc tag. Control antibodies tested were mAbs BC-1 and IST-6. After four washes with PBST, the plates were incubated for 1 h at 37° C. with 1:2000 diluted (in PBST+3% BSA) biotinylated goat anti-mouse IgG (Bio-SPA Division, Milan, Italy). The washes were repeated and Streptavidin-biotinylated alkaline phosphatase complex (Bio-SPA Division, Milan, Italy) was added (1:800 diluted in PBST containing 2 mM MgCl2) for 1 h at 37° C. The reaction was developed using Phosphatase substrate tablets (Sigma) in 10% diethanolamine, pH 9.8 and the optical density was read at 405 nm.
A general note: ELISA stands for enzyme-linked immunosorbent assay.

Test [6] has as its target T3, fibronectin purified from the …. Nature of the test: ELISA on coated antigen, background subtracted. The procedure: as §2
Test [7] deals with T5, recombinant FN domain 6 (human, UniProt P02751 1086-1172, limits assumed).
T5 construct: domain: FN-6; also called rec FN-6; rec FN6
T5 sequence (P02751 other isoform, or with tags, fused parts or gaps limits assumed): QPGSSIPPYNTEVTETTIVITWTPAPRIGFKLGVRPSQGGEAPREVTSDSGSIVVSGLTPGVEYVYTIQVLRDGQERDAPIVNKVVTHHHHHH
The test is described as follows: ELISA on coated antigen, background subtracted. How it is done: as §2

For test [8], the target named is T4, recombinant FN fragment 7B89. The test is described as follows: ELISA on coated antigen, background subtracted. How it is done:
as §2

Test [9] deals with T1, recombinant FN fragment 789. The test is described as follows: ELISA on coated antigen, background subtracted. How it is done:
as §2

For test [10], the target named is T6, native FN 110 kD (B-) thermolysin fragment (human, UniProt P02751-1 722-1630, limits assumed).
T6 construct: domain: thermolysin treated FN domain 4, without ED-B; also called 110 kD protein
T6 sequence (P02751 other isoform, or with tags, fused parts or gaps limits assumed): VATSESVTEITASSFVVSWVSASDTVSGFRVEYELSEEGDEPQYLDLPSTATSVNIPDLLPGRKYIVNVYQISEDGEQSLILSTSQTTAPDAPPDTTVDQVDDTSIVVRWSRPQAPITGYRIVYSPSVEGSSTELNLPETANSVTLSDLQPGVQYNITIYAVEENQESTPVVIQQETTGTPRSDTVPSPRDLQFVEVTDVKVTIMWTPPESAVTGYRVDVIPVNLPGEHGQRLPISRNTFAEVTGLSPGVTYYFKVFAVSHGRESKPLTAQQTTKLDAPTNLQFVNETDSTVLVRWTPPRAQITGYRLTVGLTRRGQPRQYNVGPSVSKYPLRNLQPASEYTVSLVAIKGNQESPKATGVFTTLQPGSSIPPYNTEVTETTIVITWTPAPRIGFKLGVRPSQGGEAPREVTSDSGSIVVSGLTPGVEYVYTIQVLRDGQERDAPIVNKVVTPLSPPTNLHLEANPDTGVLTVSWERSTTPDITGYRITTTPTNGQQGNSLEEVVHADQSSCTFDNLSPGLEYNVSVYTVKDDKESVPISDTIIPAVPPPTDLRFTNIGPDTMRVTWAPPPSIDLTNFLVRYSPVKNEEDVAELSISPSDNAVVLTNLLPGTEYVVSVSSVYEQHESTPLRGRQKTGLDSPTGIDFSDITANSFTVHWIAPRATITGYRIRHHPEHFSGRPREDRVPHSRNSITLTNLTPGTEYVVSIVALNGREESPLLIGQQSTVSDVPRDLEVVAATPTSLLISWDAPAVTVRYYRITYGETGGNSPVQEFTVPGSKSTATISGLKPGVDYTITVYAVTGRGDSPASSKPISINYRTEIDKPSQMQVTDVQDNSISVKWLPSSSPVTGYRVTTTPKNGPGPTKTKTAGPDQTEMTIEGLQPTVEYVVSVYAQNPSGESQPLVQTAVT
Nature of the test: ELISA on coated antigen, background subtracted. The procedure:
as §2

The target of test [11] is T7, native FN 120 kD (B+) thermolysin fragment (human, UniProt P02751 722-1721, limits assumed).
T7 construct: domain: thermolysin treated FN domain 4, containing ED-B; also called 120 kD protein; 120 kD domain
The test is described as follows: ELISA on coated antigen, background subtracted. The procedure: as §2

Test [12] has as its target T8, 85 kD thermolysin fragment of FN from WI38VA cells (human, UniProt P02751 722-1351, limits assumed).
T8 construct: domain: 85 kD fragment spanning repeats 2-7 in addition to the N-terminus of ED-B; also called 85 kD fragment; 85 kD domain
Nature of the test: immunoblot. How it is done: (§3) The antigens used for ELISA and immunoblotting were prepared as follows. FN was purified from human plasma and from the conditioned medium of the WI38VA13 cell line as previously reported (Zardi et al, 1987). Purified FNs were digested with thermolysin (protease type X; Sigma Chemical Co.) as reported by Carnemolla et al (1989). Native FN 110 kD (B−) and native FN 120 kD (B+) fragments (see FIG. 2) were purified from a FN digest as previously reported (Borsi et al, 1991). The large isoform of tenascin-C was purified as reported by Saginati et al (1992). Recombinant proteins were expressed and purified as described in Example 1. SDS-PAGE and Western blotting were carried out as described by Carnemolla et al (1989).
(§4) On the left hand side of FIG. 2B is a Coomassie stained gel of the protein fractions analysed by immunoblotting. Plasma FN (lane 1) and thermolysin digests of the protein (lane 3, containing the 110 kD protein, and lane 4, containing digested 110 kD protein) were not recognised by CGS-1 and CGS-2. In contrast, ED-B-rich FN from WI38VA cells, both intact (lane 2) and after increasing thermolysin digestion (lanes 5, 6 and 7) was recognised by both scFv fragments. […]

For test [13], the target named is T9, mouse B-FN (mouse, UniProt P11276 33-2477, limits assumed).
T9 construct: also called mouse B+ fibronectin
The test is described as follows: immunohistochemistry.

The target in test [14] is T5, recombinant FN domain 6. Nature of the test: ELISA.
The target of test [15] is T6, native FN 110 kD (B-) thermolysin …. The test is described as follows: ELISA.
Test [16] has as its target T2, recombinant ED-B domain of human …. Nature of the test: BIAcore, monomeric scFv on immobilised antigen; Kd = koff/kon. How it is done: as §1
The target of test [17] is T3, fibronectin purified from the …. The test is described as above. How it is done:
as §1

For test [18], the target named is T4, recombinant FN fragment 7B89. The test is described as above. The procedure:
as §1

For test [19], the target named is T6, native FN 110 kD (B-) thermolysin …. The test is described as follows: immunoblot. How it is done:
as §3, §4

Test [20] addresses T10, chicken B-FN (chicken, UniProt P11722 22-2483, limits assumed).
T10 construct: also called chicken B+ fibronectin
Nature of the test: immunohistochemistry.

T2 sequence (P02751 other isoform, or with tags, fused parts or gaps limits assumed): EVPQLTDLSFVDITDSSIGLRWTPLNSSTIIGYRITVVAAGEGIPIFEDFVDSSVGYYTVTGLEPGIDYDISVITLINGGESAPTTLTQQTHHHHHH
T1 sequence (P02751 other isoform, or with tags, fused parts or gaps limits assumed): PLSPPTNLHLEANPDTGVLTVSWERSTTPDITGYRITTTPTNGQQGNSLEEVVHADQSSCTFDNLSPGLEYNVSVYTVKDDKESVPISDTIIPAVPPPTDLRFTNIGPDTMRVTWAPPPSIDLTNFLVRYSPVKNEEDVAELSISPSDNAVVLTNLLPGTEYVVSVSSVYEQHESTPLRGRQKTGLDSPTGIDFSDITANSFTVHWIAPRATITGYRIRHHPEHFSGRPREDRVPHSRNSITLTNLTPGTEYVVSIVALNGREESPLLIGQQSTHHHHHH
T8 sequence (P02751 722-1351 limits assumed): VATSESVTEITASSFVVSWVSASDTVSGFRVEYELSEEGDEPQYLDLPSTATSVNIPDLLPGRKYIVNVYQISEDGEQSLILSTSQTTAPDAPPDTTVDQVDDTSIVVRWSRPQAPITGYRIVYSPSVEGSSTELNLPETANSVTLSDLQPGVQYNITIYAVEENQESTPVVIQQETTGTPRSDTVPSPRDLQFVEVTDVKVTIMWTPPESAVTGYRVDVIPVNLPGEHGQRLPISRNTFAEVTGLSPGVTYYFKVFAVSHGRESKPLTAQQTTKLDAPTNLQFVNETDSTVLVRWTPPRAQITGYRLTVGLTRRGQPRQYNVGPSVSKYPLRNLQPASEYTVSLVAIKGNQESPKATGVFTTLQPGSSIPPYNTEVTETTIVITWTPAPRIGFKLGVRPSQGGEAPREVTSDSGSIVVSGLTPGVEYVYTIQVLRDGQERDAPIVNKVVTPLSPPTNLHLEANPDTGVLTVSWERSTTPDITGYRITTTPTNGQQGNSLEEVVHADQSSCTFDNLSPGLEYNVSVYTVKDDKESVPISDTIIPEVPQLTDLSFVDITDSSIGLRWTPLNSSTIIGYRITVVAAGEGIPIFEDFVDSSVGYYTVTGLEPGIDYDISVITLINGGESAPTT

B1: scFv CGS-1 (scFv, V domains shown)
VH: QVQLVESGGGLVQPGGSLRLSCAVSGFTFSSYAMSWVRQAPGKGLEWVSAISGSGGSTYYADSVKGRFTISRDNSKNTLYLQMNSLRAEDTAVYYCARSLPKWGQGTLVTVSR
VL: SSELTQDPAVSVALGQTVRITCQGDSLRSYYASWYQQKPGQAPVLVTYGKNNRPSGIPDRFSGSSSGNTASLTITGAQAEDEADYYCNSSPVVLNGVVFGGGTKLTVL
notes: claims 6 and 8 say that 8 is a VH and 10 a VL; VH-linker-VL order follows from the cloning primers; Monomeric, FPLC-purified, in BIAcore; in the ELISA detected through a FLAG or myc tag
Turning to B1, the binding result in [1] was “no binding”; in test [12], “no binding”; in [13], “binds”; in test [14], “no binding”; in test [15], “no binding”. In addition, the koff (as a rule, the first-order rate constant of dissociation) in test [2] was determined as 0.007 s⁻¹; in test [3], 0.005 s⁻¹; in test [4] it was 0.0039 s⁻¹. Besides, the kon – broadly, a measure of how fast the partners come together – in test [2] stood at 130000 M⁻¹ s⁻¹; in test [3], 410000 M⁻¹ s⁻¹; in [4], 110000 M⁻¹ s⁻¹. In addition, the “OD at 405 nm” value in test [5] worked out at 1.21 OD 405 nm; in [6], 1.16 OD 405 nm; in test [7] it was 0.01 OD 405 nm; in [8] it was 1.11 OD 405 nm; in test [9], 0.01 OD 405 nm; in test [10], 0.03 OD 405 nm. For the same molecule, the “OD at 405 nm” value in test [11] was 0.82 OD 405 nm. Also, the Kd (commonly the constant that tells how readily two partners part at equilibrium) in [16] was 54 nM; in test [17] it was 12 nM; in test [18], 35 nM.

B2: scFv CGS-2 (scFv, V domains shown)
VH: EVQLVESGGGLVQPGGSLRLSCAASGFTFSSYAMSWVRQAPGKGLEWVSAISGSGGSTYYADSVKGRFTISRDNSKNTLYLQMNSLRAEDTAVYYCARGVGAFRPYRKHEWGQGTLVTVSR
VL: B1 VL with T47I, I74T, V92F, V93E, L94H, G96L
notes: claims 7 and 9 say that 9 is a VH and 11 a VL; Monomeric, FPLC-purified, in BIAcore
B2: the binding result in [1] was “no binding”; in [19], “no binding”; in test [20], “binds”; in [13] it was “binds”; in test [14] it was “no binding”. Further, the dissociation rate constant (koff) stood at 0.00015 s⁻¹ in test [2], 0.00065 s⁻¹ in test [3] and 0.00023 s⁻¹ in test [4]. Besides, the results for the kon in [2], in test [3] and in test [4] were 130000 M⁻¹ s⁻¹, 290000 M⁻¹ s⁻¹ and 110000 M⁻¹ s⁻¹, respectively. Moreover, the “OD at 405 nm” value in test [5] is 1.32 OD 405 nm; in test [6], 0.72 OD 405 nm; in test [7], 0.01 OD 405 nm; in test [8] it was 1.02 OD 405 nm; in test [9], 0.01 OD 405 nm; in test [10] it was 0.01 OD 405 nm. Besides, in [11], the “OD at 405 nm” value is 0.81 OD 405 nm. Also, the Kd came to 1.1 nM in [16], 2.4 nM in [17] and 2.1 nM in test [18].
